Source: patent US20220249649A1 (ECOLE POLYTECHNIQUE FEDERALE DE LAUSANNE, published 2022)

Target: T1, D25 antibody (IgG)
T1 construct: RSVF site 0 neutralising antibody, human IgG1 vector; The IgG was immobilised on the SPR chip; PDB 4JHW is cited; also called nAb D25
Assay: not stated (comparison value, FIG. 18 cited)

B1: prefusion stabilized RSVF (sc9-10 DS-Cav1 A149C Y458C S46G E92D S215P K465Q variant, DS2) (other)
chain: QNITEEFYQSTCSAVSKGYLGALRTGWYTSVITIELSNIKENKCNGTDAKVKLIKQELDKYKNAVTDLQLLMQSTPPTNNGSGSAICSGVAVCKVLHLEGEVNKIKSALLSTNKAVVSLSNGVSVLTFKVLDLKNYIDKQLLPILNKQSCSIPNIETVIEFQQKNNRLLEITREFSVNAGVTTPVSTYMLTNSELLSLINDMPITNDQKKLMSNNVQIVRQQSYSIMCIIKEEVLAYVVQLPLYGVIDTPCWKLHTSPLCTTNTKEGSNICLTRTDRGWYCDNAGSVSFFPQAETCKVQSNRVFCDTMNSLTLPSEINLCNVDIFNPKYDCKIMTSKTDVSSSVITSLGAIVSCYGKTKCTASNKNRGIIKTFSNGCDYVSNKGMDTVSVGNTLYCVNKQEGQSLYVKGEPIINFYDPLVFPSDEFDASISQVNEKINQSLAFIRKSDELL
notes: also called preRSVF; prefusion RSVF
- Kd: 150 µM
